Data taken from patent CN107417789A.

Target: 移除了糖基化位点(Asn-38)的H7 HA(A/鸡/意大利/99假病毒) (influenza A virus A/chicken/Italy/99 (H7))
Experiment: cell-based or functional assay

Substance | H7假病毒中和 IC50 [µg/mL]
CR6261 (antibody) | > 50
F10 (antibody) | > 50
